B1: WT G-CSFR(Ig-CRH), purified, tag cleaved (receptor)
chain: GSMGCGHISVSAPIVHLGDPITASCIIKQNCSHLDPEPQILWRLGAELQPGGRQQRLSDGTQESIITLPHLNHTQAFLSCSLNWGNSLQILDQVELRAGYPPAIPHNLSCLMNLTTSSLICQWEPGPETHLPTSFTLKSFKSRGNCQTQGDSILDCVPKDGQSHCSIPRKHLLLYQNMGIWVQAENALGTSMSPQLCLDPMDVVKLEPPMLRTMDPSPEAAPPQAGCLQLSWEPWQPGLHINQKCELRHKPQRGEASWALVGPLPLEALQYELCGLLPATAYTLQIRCIRWPLPGHWSDWSPSLELRTTE
notes: also called G-CSFRWT; wild type G-CSFR(Ig-CRH)

The target in test [1] is T1, WT G-CSF, purified from insect cells, tag cleaved (human, UniProt P09919 31-206).
T1 construct: protein of the SPR; also called G-CSFWT; wild type G-CSF
T1 sequence: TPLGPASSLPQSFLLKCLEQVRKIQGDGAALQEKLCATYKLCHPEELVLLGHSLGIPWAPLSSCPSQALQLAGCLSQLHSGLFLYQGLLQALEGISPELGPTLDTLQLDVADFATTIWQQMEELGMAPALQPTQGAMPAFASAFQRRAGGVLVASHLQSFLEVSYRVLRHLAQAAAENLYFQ
Description: SPR (Biacore T200, 25 °C), single-cycle kinetics, 1:1 Langmuir fit; lower end of the range found for the WT:WT pair. The protocol:
(§1) To assess binding affinity of G-CSFE to G-CSFRWT, recombinant G-CSFRWT purified as described in Example 5 was captured as described above in this Example. Using single-cycle kinetics, six concentrations of a two-fold dilution series of each G-CSFE mutant starting at […] with a blank buffer control were sequentially injected as described above. The same sample titration was also performed on a reference cell with no variants captured. The G-CSFRWT surface was regenerated as described above.
(§2) Double-referenced sensorgrams from duplicate or triplicate repeat injections were analyzed using Biacore™ T200 Evaluation Software v3.0 and fit to the 1:1 Langmuir binding model.
(§3) Kinetic-derived affinity constants (KD) where obtained by fitting the association and dissociation phases of the curves. The KD of WT G-CSF for WT G-CSFR(Ig-CRH) ranged between 1.8-2.5E-9. For the cases in which the kinetic parameters could not be fit an attempt was made to derive a steady state affinity constant. In those cases, the KD fold change was calculated from the steady state derived KD for the WT G-CSF:WT G-CSFR(Ig-CRH) pair and is indicated in Table 7.
Background: SPR reads the build-up and loss of mass on a sensor chip optically.

The target of test [2] is T2, design 130 G-CSFR(Ig-CRH)E, tag cleaved (human, UniProt Q99062 26-331).
T2 construct: also called 130 ECD (Ig-CRH)
T2 chain: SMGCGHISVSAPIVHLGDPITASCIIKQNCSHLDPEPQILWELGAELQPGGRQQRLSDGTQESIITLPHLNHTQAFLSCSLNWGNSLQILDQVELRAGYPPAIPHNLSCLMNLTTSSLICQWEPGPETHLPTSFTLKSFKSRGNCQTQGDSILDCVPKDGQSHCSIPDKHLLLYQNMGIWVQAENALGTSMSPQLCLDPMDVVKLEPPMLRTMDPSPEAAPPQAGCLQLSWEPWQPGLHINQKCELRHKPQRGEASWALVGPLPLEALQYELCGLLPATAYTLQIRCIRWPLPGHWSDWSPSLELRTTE
Description: SPR, G-CSFRE amine-coupled, G-CSFE injected, single-cycle kinetics. The protocol: (§4) The SPR binding assays were carried out on a Biacore T200 instrument (GE Healthcare, Mississauga, ON, Canada) with PBS-T (PBS+0.05% (v/v) Tween 20) running buffer at a temperature of 25° C. CM5 Series S sensor chip, Biacore amine coupling kit (NHS, EDC and 1 M ethanolamine), and 10 mM sodium acetate buffers were all purchased from GE Healthcare. PBS running buffer with 0.05% Tween20 (PBS-T) was purchased from Teknova Inc. (Hollister, CA). Designs were assessed in three different immobilization orientations.
(§5) To determine binding affinity of G-CSFE to G-CSFRE the G-CSFRE mutant was captured by standard amine coupling as described by the manufacturer (GE LifeSciences). Briefly, immediately after EDC/NHS activation, a 5 μg/mL solution of G-CSFRE in 10 mM NaOAc, pH 5.0, was injected at a flow rate of 5 μL/min until a receptor density of ˜700-900 RU was reached. The remaining active groups were quenched by a 420 s injection of 1 M ethanolamine hydrochloride-NaOH pH 8.5 at 10 μL/min. Using single-cycle kinetics, six concentrations of a two-fold dilution series of the corresponding G-CSFE mutant starting at 200 nM with a blank buffer control were sequentially injected at 25 μL/min for 300 s with a 1800 s dissociation phase, resulting in a set of sensorgrams with a buffer blank reference. The same sample titration was also performed on a reference cell with no variants captured. The chip was regenerated to prepare for the next injection cycle by one pulse of 10 mM glycine/HCl, pH 2.0, for 30 s at 30 μL/min.
as §2

The target of test [3] is T3, design 134 G-CSFR(Ig-CRH)E, tag cleaved (human, UniProt Q99062 26-331).
T3 construct: also called design 137 G-CSFR(Ig-CRH)E
T3 chain: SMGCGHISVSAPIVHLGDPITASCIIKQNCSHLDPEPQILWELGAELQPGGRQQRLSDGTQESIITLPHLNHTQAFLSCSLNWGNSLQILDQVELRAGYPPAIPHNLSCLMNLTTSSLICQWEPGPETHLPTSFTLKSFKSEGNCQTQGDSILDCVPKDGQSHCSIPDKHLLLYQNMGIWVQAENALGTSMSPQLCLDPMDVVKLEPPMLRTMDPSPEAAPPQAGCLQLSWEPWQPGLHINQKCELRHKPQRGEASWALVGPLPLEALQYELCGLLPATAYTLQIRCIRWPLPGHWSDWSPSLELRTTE
The test is described as above. The protocol:
as §4, §5, §2

Test [4] has as its target B1. Briefly: SPR, single-cycle kinetics, G-CSFR(Ig-CRH) on the chip, G-CSF injected. The protocol: as §4, §1, §2
Test [5] deals with T4, design 401 G-CSFR(Ig-CRH)E, tag cleaved (human, UniProt Q99062 26-331).
T4 chain: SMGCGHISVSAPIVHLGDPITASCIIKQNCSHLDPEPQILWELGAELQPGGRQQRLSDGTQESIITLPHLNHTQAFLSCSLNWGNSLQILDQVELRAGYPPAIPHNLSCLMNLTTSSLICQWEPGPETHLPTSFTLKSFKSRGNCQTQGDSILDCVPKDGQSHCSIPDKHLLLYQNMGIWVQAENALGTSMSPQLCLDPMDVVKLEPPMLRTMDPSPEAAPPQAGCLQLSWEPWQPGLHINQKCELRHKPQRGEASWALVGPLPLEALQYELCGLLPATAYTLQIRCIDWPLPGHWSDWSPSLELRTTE
Briefly: SPR, G-CSFRE amine-coupled, G-CSFE injected; steady state derived affinity constant. The protocol: as §5, §2, §3

The target in test [6] is T5, design 402 G-CSFR(Ig-CRH)E, tag cleaved (human, UniProt Q99062 26-331).
T5 chain: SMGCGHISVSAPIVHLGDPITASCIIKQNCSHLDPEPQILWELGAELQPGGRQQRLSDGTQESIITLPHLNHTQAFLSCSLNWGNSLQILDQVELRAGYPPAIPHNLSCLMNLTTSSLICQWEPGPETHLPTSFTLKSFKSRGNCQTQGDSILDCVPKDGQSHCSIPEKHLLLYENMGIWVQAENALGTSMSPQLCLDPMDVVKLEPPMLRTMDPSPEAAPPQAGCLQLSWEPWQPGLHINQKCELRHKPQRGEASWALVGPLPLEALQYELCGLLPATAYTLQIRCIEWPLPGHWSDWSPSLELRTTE
The test is described as above. On the procedure: as §5, §2, §3

Consider B1, for which, in test [1], the Kd (usually the equilibrium constant for the complex coming apart) lay in the range of 1.8 to 2.5 nM.

B2: design 130 G-CSFE, tag cleaved (ligand)
chain: TPLGPASSLPQSFLLKCLEQVRKIQGDGAALQEKLCATYKLCHPERLVLLGHSLGIPWAPLSSCPSQALQLAGCLSQLHSGLFLYQGLLQALEGISPELGPTLDTLQKDVARFATTIWQQMEELGMAPALQPTQGAMPAFASAFQRRAGGVLVASHLQSFLEVSYRVLRHLAQAAAENLYFQ
notes: also called design 137 G-CSFE; G-CSF137
As for B2, the “KD fold change (against WT:WT)” value in test [2] was found to be 0.9 fold; in test [3], 0.3 fold. Besides, the binding result in test [4] was “no binding”.

B3: design 401 G-CSFE, tag cleaved (ligand)
chain: TPLGPASSLPQSFLLKCLKQVRKIQGDGAALQEKLCATYKLCHPERLVLLGHSLGIPWAPLSSCPSQALQLAGCLSQLHSGLFLYQGLLQALEGISPELGPTLDTLQKDVARFATTIWQQMEELGMAPALQPTQGAMPAFASAFQRRAGGVLVASHLQSFLEVSYRVLRHLAQAAAENLYFQ
For the molecule B3, in test [5], the “KD fold change (against WT:WT)” value amounted to 0.6 fold. The binding result in test [4] was “no binding”.

B4: design 402 G-CSFE, tag cleaved (ligand)
chain: TPLGPASSLPQSFLLKCLKQVRKIQGDGAALQEKLCATYKLCHPERLVLLGHSLGIPWAPLSSCPSQALQLAGCLSQLHSGLFLYQGLLQALEGISPELGPTLDTLQLDVAKFAKTIWQQMEELGMAPALQPTQGAMPAFASAFQRRAGGVLVASHLQSFLEVSYRVLRHLAQAAAENLYFQ
Turning to B4, the “KD fold change (against WT:WT)” value in test [6] was found to be 0.8 fold. In test [4], the binding result is “no binding”.

The record behind these values is patent publication US20240254182A1 (PROVINCIAL HEALTH SERVICES AUTHORITY, published 2024).
